Changes are numbered by the printed parent chain.
B1: v36180 (M3-H1L1) (antibody, human IgG1, kappa, V domains shown)
VH: EVQLVQSGAEVKKPGSSVKVSCKASGYTFTDYEMHWVRQAPGQGLEWIGAIDPETGDTAYNQKFKGRATLTADKSTSTAYMELSSLRSEDTAVYYCTRYFSFAYWGQGTLVTVSS
VL: DVQMTQSPSSVSASVGDRVTITCRSSQSLRHSNGNTYLQWYQQKPGKAPKLLIYKVSNRFSGVPSRFSGSGSGTDFTLTISSLQPEDFATYFCYQSKHVPYTFGQGTKVEIKR
notes: humanized full-size IgG1 (IGHG1*01)/kappa antibody; heavy chain ends at G446 (EU); also called M3-HIL1
B2: v37575 (codrituzumab) (antibody, human IgG1, kappa, V domains shown)
VH: QVQLVQSGAEVKKPGASVKVSCKASGYTFTDYEMHWVRQAPGQGLEWMGALDPKTGDTAYSQKFKGRVTLTADKSTSTAYMELSSLTSEDTAVYYCTRFYSYTYWGQGTLVTVSS
VL: DVVMTQSPLSLPVTPGEPASISCRSSQSLVHSNRNTYLHWYLQKPGQSPQLLIYKVSNRFSGVPDRFSGSGSGTDFTLKISRVEAEDVGVYYCSQNTHVPPTFGQGTKLEIKR
notes: also called GC33; RG-7686
B3: v37574 (M3-H18L6) (antibody, human IgG1, kappa)
heavy: not shown
light: EIVLTQSPATLSLSPGERATISCRSSQSLRHSNGNTYLQWYQQKPGQAPRLLIYKVSNRFSGVPARFSGSGSGTDFTLTISSLEPEDFAVYFCYQSKHVPYTFGGGTKVEIKRTVAAPSVFIFPPSDEQLKSGTASVVCLLNNFYPREAKVQWKVDNALQSGNSQESVTEQDSKDSTYSLSSTLTLSKADYEKHKVYACEVTHQGLSSPVTKSFNRGEC
notes: humanized full-size IgG1 (IGHG1*01)/kappa antibody without heavy chain C-terminal lysine
B4: v38592 (M3-H18L6 with HC C-terminal lysine) (antibody, human IgG1, kappa)
heavy: not shown
light: B3 light
notes: identical to v37574 but the cDNA of the heavy chains encodes a C-terminal lysine; also called M3-H18L6 (WT) mAb; wild-type M3-H18L6
B5: v38592-MC-GGFG-AM-Compound 139, DAR 4 (antibody, human IgG1, kappa)
heavy: not shown
light: B3 light
modifications: MC-GGFG-AM-Compound 139 drug-linker on reduced cysteines, sites not stated; MC-GGFG-AM-Compound 139 drug-linker on reduced cysteines, sites not stated; DAR 4 for the whole antibody
notes: antibody-drug conjugate
B6: v40213 (H18L6_LC_N33E mAb) (antibody, human IgG1, kappa, V domains shown)
VH: B1 VH with E1Q, R38K, Q43H, R67K, K74T
VL: EIVLTQSPATLSLSPGERATISCRSSQSLRHSEGNTYLQWYQQKPGQAPRLLIYKVSNRFSGVPARFSGSGSGTDFTLTISSLEPEDFAVYFCYQSKHVPYTFGGGTKVEIKR
notes: as for v40203
B7: v40215 (H18L6_LC_N33V mAb) (antibody, human IgG1, kappa, V domains shown)
VH: B1 VH with E1Q, R38K, Q43H, R67K, K74T
VL: B6 VL with E33V
notes: as for v40203

Assays:
[1] = biological target: T1, human GPC3 on cells (human, UniProt P51654 25-554); assay: flow cytometry, HepG2 cells
T1 construct: GPI-anchored protein on transfected CHO-S cells, on human tumor cell lines or on HEK293T cells; the cell is named under assay; also called human GPC3 on CHO-S transfected cells; HuGPC3-CHO
Procedure: (§1) Briefly, cells were seeded at 50,000 cells/well in V-bottom 96-well plates and treated with antibody for 24 hours at 4° C. to prevent internalization. […] Following incubation and washing, fluorescence was detected by flow cytometry on a BD LSRFortessa™ Cell Analyzer (BD Biosciences, Franklin Lake, NJ) with 1,000 minimum events collected per well. AF647/APC-A GeoMean (fluorescence signal geometric mean, proportional to anti-Human AF647 binding) in live cell population was plotted against antibody concentration using GraphPad Prism Version 9 (GraphPad Software, San Diego, CA). The Bmax, Curve Hill Slope (h) and Kd values were derived from the “Specific binding with Hill slope” nonlinear regression curve fit in GraphPad Prism Version 9.

[2] = biological target: T2, recombinant human GPC3 (ACROBiosystems) (human, UniProt P51654 25-559); assay: SPR; Kd on huGPC3 over Kd on cynoGPC3
T2 construct: bought antigen of the SPR assays, SEC purified; also called huGPC3; hGPC3
Procedure: (§2) Antigens: recombinant human and cynomolgus GPC3 was purchased from ACROBiosystems (Newark, DE) and SEC purified on a Superdex 200 10/300 GL column (Cytiva) in PBST running buffer at 0.8 mL/min.
(§3) Screening of the antibodies for binding to GPC3 antigen was conducted via anti-Fc capture of antibodies, followed by the injection of five concentrations of GPC3. The anti-Fc surface was prepared on a CM5 Series S sensor chip by standard amine coupling methods as described by the manufacturer (Cytiva Life Sciences, Mississauga, ON, Canada). […] Approximately 500-600 RUs of each antibody (1-3 μg/mL) were captured on the goat anti-human IgG surface by injecting at 10 μL/min for 60s. Using single-cycle kinetics, five concentrations of a two-fold dilution series of human or cynomolgus GPC3 starting at 40 nM (or 20 nM) with a blank buffer control were injected at 40 μL/min for 180s of contact time, followed by 180 s (or 300 s) dissociation phase, resulting in sensorgrams with a buffer blank reference. The anti-Fc surface was regenerated to prepare for the next injection cycle by one pulse of 10 mM glycine/HCl pH 1.5 for 180 s at 40 μL/min. Blank-subtracted sensorgrams were analyzed using Biacore™ T200 Evaluation Software v3.0. The blank-subtracted sensorgrams were then fit to the 1:1 Langmuir binding model.

[3] = biological target: T1, human GPC3 on cells; assay: flow cytometry, JHH-7 cells; apparent Kd
Procedure: as §1

[4] = biological target: T1, human GPC3 on cells; assay: flow cytometry, HepG2 cells; apparent Kd
Procedure: as §1

[5] = biological target: T1, human GPC3 on cells; assay: cell-based or functional assay
[6] = biological target: T1, human GPC3 on cells; assay: flow cytometry on JHH-7 cells (GPC3-high), 24 h at 4 C, anti-human IgG Fc AF647
Procedure: as §1

[7] = biological target: T1, human GPC3 on cells; assay: flow cytometry on HepG2 cells (GPC3-high), 24 h at 4 C, anti-human IgG Fc AF647
Procedure: as §1

[8] = biological target: T2, recombinant human GPC3 (ACROBiosystems); assay: SPR, antibody captured on anti-Fc, GPC3 injected, 1:1 fit
Procedure: as §2, §3

[9] = biological target: T3, recombinant cynomolgus GPC3 (ACROBiosystems) (cynomolgus monkey, UniProt A5A6P7 25-559 (Pan troglodytes entry), limits assumed); assay: as above
T3 construct: bought antigen of the SPR assays; also called cynoGPC3
Procedure: as §2, §3

[10] = biological target: T1, human GPC3 on cells; assay: flow cytometry, JHH-7 cells
Procedure: as §1

[11] = biological target: KLH (Sigma-Aldrich, H8283); assay: NS-ELISA, plate coated with KLH, antibody at 100 nM
Procedure: 50 μL each of insulin, KLH, dsDNA and ssDNA were added to a 96 well plate, followed by the incubation at 37° C. for 2 h. The coating materials were removed, and the plate was blocked with 200 μL of Gibco™ PBS pH7.4, 0.1% Tween®20, and incubated for 1 h at room temperature with shaking at 200 rpm. The plate was washed 3 times with Gibco™ PBS pH7.4, 0.1% Tween 20. 50 μL of each mAb at 100 nM (15 mg/mL) in Gibco™ PBS pH 7.4, 0.1% Tween®20 was added in duplicate to the wells and incubated for 1 h at room temperature with shaking at 200 rpm. Plates were washed three times with Gibco™ PBS pH7.4, 0.1% Tween 20, and 50 μL of 50 ng/mL anti-human IgG HRP (Thermofisher Scientific©, H₁₀₃₀₇) was added to each well. Plates were incubated for 1 h at room temperature, with shaking at 200 rpm. The plate was washed three times with Gibco™ PBS pH7.4, 0.1% Tween 20, and 100 μL of TMB substrate (Cell Signaling Technology©, 7004P6) added to each well. […] Binding scores were calculated as the ratio of the ELISA signal of the antibody to the signal of a well containing buffer instead of the primary antibody. The cutoffs considered for each binding molecule (ssDNA. KLH, Insulin, dsDNA and Heparin) were internally calculated.

[12] = biological target: T2, recombinant human GPC3 (ACROBiosystems); assay: SPR
[13] = biological target: T1, human GPC3 on cells; assay: flow cytometry, CHO-S cells transfected with human GPC3; apparent Kd
Procedure: (§4) Briefly, CHO—S cells were transiently transfected for −24 hours with a pTT5-based expression plasmid encoding human GPC3 or cynomolgus monkey GPC3, 0.5 μg DNA per 1 million cells, using the Neon™ Transfection System (Thermo Fisher Scientific Corp., Waltham, MA), to transiently express human or cynomolgus monkey GPC3. Following transfection, cells were seeded at 50,000 cells/well in V-bottom 96-well plates and treated with antibody for 24 hours at 4° C. to prevent internalization. […] Following incubation and washing, fluorescence was detected by flow cytometry on a BD LSRFortessa™ Cell Analyzer (BD Biosciences, Franklin Lake, NJ) with 1,000 minimum events collected per well. AF647/APC-A GeoMean (fluorescence signal geometric mean, proportional to anti-Human AF647 binding) in live cell population was plotted against antibody concentration using GraphPad Prism Version 9 (GraphPad Software, San Diego, CA). The Bmax and Kd values were derived from the “Specific binding with Hill slope” nonlinear regression curve fit in GraphPad Prism Version 9.

[14] = biological target: T4, cynomolgus monkey GPC3 on CHO-S transfected cells (cynomolgus monkey, UniProt A5A6P7 25-554 (Pan troglodytes entry)); assay: flow cytometry, CHO-S cells transfected with cynomolgus monkey GPC3; apparent Kd
T4 construct: transient expression from a pTT5-based plasmid; also called CHO-S Cyno GPC3; CynoGPC3-CHO
Procedure: as §4

[15] = biological target: T1, human GPC3 on cells; assay: flow cytometry on JHH-5 cells (GPC3-mid), 24 h at 4 C, anti-human IgG Fc AF647
Procedure: (§5) Cell lines investigated included GPC3-hi HepG2 and JHH-7 cells, GPC3-mid JHH-5 cells, as well as GPC3-negative SNU-601 cells.
as §1

[16] = biological target: T5, FcgR1A (human, UniProt P12314 16-374); assay: Membrane Proteome Array: high-throughput flow cytometry on unfixed HEK293T cells, each well expressing one human membrane protein; antibody at 1.25 ug/mL; the text ascribes this to the Fc portion
T5 construct: whole, on cells
Procedure: Briefly, the study consisted of three phases: phase (1) determination of assay screening conditions, phase (2) membrane proteome array (library) screen and phase (3) protein target validation. […] In phase (3), each protein target hit from the screen stage (potential off-target interactions) was assessed in titration experiment using flow cytometry.

[17] = biological target: T1, human GPC3 on cells; assay: flow cytometry on HepG2 cells (GPC3-high), 24 h at 4 C, anti-human IgG Fc AF647; remark: listed apart in the source
Procedure: as §5, §1

[18] = biological target: T1, human GPC3 on cells; assay: flow cytometry on JHH-7 cells (GPC3-high), 24 h at 4 C, anti-human IgG Fc AF647; remark: listed apart in the source
Procedure: as §5, §1

[19] = biological target: T1, human GPC3 on cells; assay: flow cytometry on CHO-S cells transiently transfected with human GPC3, 24 h at 4 C, anti-human IgG Fc AF647
Procedure: as §4

[20] = biological target: T1, human GPC3 on cells; assay: flow cytometry, JHH-5 cells
[21] = biological target: T1, human GPC3 on cells; assay: flow cytometry, JHH-7 cells; remark: listed apart in the source

T5 sequence (P12314 16-374): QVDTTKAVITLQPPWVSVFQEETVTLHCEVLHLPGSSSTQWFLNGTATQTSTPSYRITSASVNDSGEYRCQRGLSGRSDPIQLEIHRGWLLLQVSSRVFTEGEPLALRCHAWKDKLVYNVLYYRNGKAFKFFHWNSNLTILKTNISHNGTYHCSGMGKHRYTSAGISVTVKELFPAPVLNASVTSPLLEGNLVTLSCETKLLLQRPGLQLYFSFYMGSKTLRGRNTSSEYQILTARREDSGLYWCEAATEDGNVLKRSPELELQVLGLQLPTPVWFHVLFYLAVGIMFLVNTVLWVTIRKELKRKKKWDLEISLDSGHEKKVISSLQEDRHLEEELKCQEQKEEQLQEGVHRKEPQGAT

| Binder | Bmax [1] | Kd [3] | Kd [4] | EC50 (read off the curve) [6] | EC50 (read off the curve) [7] | Kd [8] | Kd [9] | Bmax [10] | NS-ELISA binding score [11] | other results |
| --- | --- | --- | --- | --- | --- | --- | --- | --- | --- | --- |
| B1 | 40000 | 0.25 nM | 0.91 nM | ~0.3 nM | ~0.9 nM | 10.5 nM | 9.67 nM | 9340 | 5.45 ratio to buffer well | Fold difference (hu/cyno) [2]: 1.1 fold; internalized fluorescence, fold increase over palivizumab, Hep G2, 5 hours, 10 nM [5]: 17 fold; internalized fluorescence, fold increase over palivizumab, Hep G2, 24 hours, 10 nM [5]: 66.2 fold; internalized fluorescence, fold increase over palivizumab, JHH-7, 5 hours, 10 nM [5]: 8.6 fold; internalized fluorescence, fold increase over palivizumab, JHH-7, 24 hours, 10 nM [5]: 46.4 fold |
| B2 | 42300 | 0.26 nM | 1.2 nM | ~0.3 nM | ~1 nM | 0.91 nM | 0.91 nM | 9000 | 1.11 ratio to buffer well | Fold difference (hu/cyno) [2]: 1 fold; internalized fluorescence, fold increase over palivizumab, Hep G2, 5 hours, 10 nM [5]: 14.4 fold; internalized fluorescence, fold increase over palivizumab, Hep G2, 24 hours, 10 nM [5]: 57.2 fold; internalized fluorescence, fold increase over palivizumab, JHH-7, 5 hours, 10 nM [5]: 8.5 fold; internalized fluorescence, fold increase over palivizumab, JHH-7, 24 hours, 10 nM [5]: 46.7 fold; fold higher affinity than M3-H18L6 [12]: ~10 fold; Kd [13]: 1.23 nM; Kd [14]: 0.98 nM |
| B3 | 33900 | 0.22 nM | 1.1 nM | ~0.2 nM | ~0.7 nM | 11.1 nM | 11.1 nM | 8520 | 0.91 ratio to buffer well | EC50 (read off the curve) [15]: ~0.2 nM; Kd [13]: 0.53 nM; Kd [14]: 0.38 nM |
| B4 |  |  |  |  |  |  |  |  |  | binding result [16]: binds |
| B5 |  |  |  |  |  |  |  |  |  | EC50 (read off the curve) [15]: ~0.4 nM; EC50 (read off the curve) [17]: ~9 nM; EC50 (read off the curve) [18]: ~0.9 nM; EC50 (read off the curve) [19]: ~0.3 nM |
| B6 |  |  |  |  |  |  |  |  |  | fold increase in Kd from wild-type [20]: ~29 fold |
| B7 |  |  |  |  |  |  |  |  |  | fold increase in Kd from wild-type [21]: > 2 fold |

Source: patent publication US20250295799A1 (Zymeworks, published 2025)
